Measurements published in publication PMC12828418, “Structural analyses and substrate profiling of PPEP-3 provide new insights into the molecular basis of Pro-Pro endopeptidase specificity” (iScience, 2025).

Biological target: T1, PPEP-3 E154A/Y190F (proteolytically inactive double mutant of Pro-Pro endopeptidase 3 from Geobacillus … (Geobacillus thermodenitrificans strain …, UniProt A4INY2 27-235, E154A | Y190F))
T1 construct: codon optimised for E. coli, cloned in pET28a via NdeI/XhoI; Zinc metalloprotease; for the substrate complex the catalytic Zn2+ was partly removed with EDTA and ortho-phenanthroline (occupancy about 40-50%); Surmise: pET28a with NdeI/XhoI adds an N-terminal His6 tag with a thrombin site; no cleavage of the tag is described, and 381 uM = 10 mg/mL (about 26 kDa) fits a kept tag; source: E. coli …
T1 sequence (looked up): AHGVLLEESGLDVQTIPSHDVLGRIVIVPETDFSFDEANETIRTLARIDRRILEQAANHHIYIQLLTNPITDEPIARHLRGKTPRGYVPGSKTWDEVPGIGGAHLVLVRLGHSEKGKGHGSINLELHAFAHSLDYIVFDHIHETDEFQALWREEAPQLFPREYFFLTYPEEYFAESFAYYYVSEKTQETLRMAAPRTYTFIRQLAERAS
Assay: crystal structure; co-crystal of the Zn2+-depleted (EDTA and ortho-phenanthroline) double mutant with the substrate peptide; sitting drop vapour diffusion, Morpheus E9, 0.1 M bicine/Trizma base pH 8.5; 2.02 Å, space group P212121, four monomers in the ASU
Conditions: both partners purified

B1: Ac-EPLPPPP-NH2 substrate peptide (peptide)
peptide: Ac-EPLPPPP-NH2
notes: synthetic substrate peptide of PPEP-3; P3-P3' are PLPPPP, cleavage between P1 and P1' prolines; also called PLPPPP (P3-P3'); source: synthetic peptide
Does B1 bind?
Result: binds
